# Values of other authors in paper PMC4115291 (Nature communications, 2014).
# Test system: mice
substance,measurement,setting,value
β-Diguetoxin-Dc1a,"effect in mice, injected intracerebroventricularly (in words)",1.0 mg/kg intracerebroventricularly,no effect
same,"effect in mice, injected intraperitoneally (in words)",4.1 mg/kg intraperitoneally,no effect
